Source: the DeepSol protein solubility set

Test: soluble on expression in E. coli; label from the status in PepcDB or PDB records
In the case of “MFSTGSGELCDSSAARAGGSMIHPILAKVTQNLTERSREARAAFIARSQAQEKAGKGRTSLSCGNLAHAVAASCSTEKKAILDFTRSNVAIVTSYNDMLSAHQPYQHYPDRIKMVLAEYGHTAQVAGGVPAMCDGVTQGQPGMDMSLFSRDLIAQATALSLSHNVFDATLLLGICDKIAPGQLMGALSYAHLPTAFMPAGLMATGISNEEKVDIRQKYAAGEVGKDALLNMECQAYHAPGTCTFYGTANTNQLVFEAMGLMLPGSAFVHPHSALRQALNDDATVKIASMTQGSAQYRPLYQVVTEKSLLNGIVALLASGGSTNHTIHMLAVARAAGILLTWQDISDLSDVVPLLAKVYPNGPADMNAFQQAGGVPALMKRLHESKLLHSDVTPVFGEFRDQLTLPELVDGELCWKACEGTRDAQVIAASGECFQTTGGTKMLNGNLGRAVIKVSAVKEEQRIIEAPAVVFQCQHQVEAAYQRGELNKDCIVVVTHNGPAANGMPELHKLMPILGNVQKAGFKVALVTDGRLSGASGKIPSAIHVSPEAVRGGAIGLVRDGDLLRLDCTTGTLENLTDMSHRQALALDTERDQQMWGRELFKVMRQAVSSAEQGASFIV”, the “soluble on expression in E. coli” value is reported as “not soluble”. With “MSFSDHFSAVAASYAKARPRYPQRWFRYLARIVPDRQRVWDCATGNGQAAIALAEYFSEVIGSDASAAQVRQARSHPRVQYLVFPAEATPLAPASLDLITVAQAAHWFDLPQFYIEAQRLLRPGGVIALWGYGLGSLNPAIDHVFNHFYRDWLDPYWPPERQWVEQAYEGLSFPFEPLPTPTFSMQCDWTLFDLLAYLRTWSGVQQFQRQRGFDPVWAIAPELQRVWGDPQRYRRITWPLFAKVGRWQPLEHHHHHH” the “soluble on expression in E. coli” value was “soluble”. With “MSLKHLKGNKNTFQKRMYCKKTEIDLSKSGTGLFPGAFYMNRHVKRVILPDYADTVPANLFKGCINLKEVTLPIDPNIGEAAFEGCISLTDIHIPLCIGSIATNAFRGCRENIRFYADSPAVNPKTLKQHIEKELGHSIELYNASGNLVESTEGHHHHHH” the “soluble on expression in E. coli” value was “soluble”. With “MGSDKIHHHHHHMRTLTISDEIVPAVYSLNIKQRFADVQLVLACGDLPIYYLEFVVTMLGQPCFYVWGNHDAPEVQADGQVVSYARGATCIEDHVVCHQGLLIGGLGGSIRYKPDGHHQYTETQMMLRVLRMAPRLFLNRLRYGRYLDVLLTHAPPLGIHNGPDYPHRGFLALLRFIQWFRPRYLIHGHIHLSYGFGHATETLYGQTLVINTAGYRVLDLAI” the “soluble on expression in E. coli” value was “not soluble”. With “MYVMTQSGWLELICGCMFSGKSEELIRRVRRAQFAKQEVKVFKPTIDNRYSEDAVVSHNGNSVIAIPVATPAEMFRYISAATDVVAIDEIQFFSDDIIDVVQTLADCGYRVIAAGLDQDFRGEPFGPVPALMAIAESVTKLQAVCTVCGSPASRTQRLINGAPASYDDPVILVGASEAYEPRCRHHHEVPGKPKKRYNHPLAGHTGE” the “soluble on expression in E. coli” value was “soluble”. With “MELLCPAGNLASLKSALQAGADAVYLGLKDDTNARSFAGLNFTPAKLQEAAELTHQRGKKIFLTLNTFPKPNEEHRWYQAIDLAAKIGVDALIVADLSLLDYAHRQYPHIPLHLSVQASATNLGALSFYKEAFNVSRVVLPRVLSMKQVRDLAKVSPVDLEVFAFGSLCIMAEGRCHLSSYVTGQSPNTGGSCSPAKHVRWQEQGQDRLTWLNEVLIDKSGLDEQMGYPVVCKGRYLTQEDDKPQYLLESPTSLNTLSLLPELAKAGIVSLKIEGRQRSPAYVEQVTKVWRQAIDTYLNHPDKFQTQAHWEQALAKVSEGQITTLGAYERNWQ” the “soluble on expression in E. coli” value was “not soluble”. For “MSTEYGCQVTNKFGLPSDDDDEYDDPRELIQKVSQIAAKKKEEKSVKPAQPVKPAAAPVAATKTDGAAGRGRGGRGRGRGGAGRPRDGERVSNENGDRPQGENRRGGPRRGGERGAARPAGRGGRGGFTRENREGEEPKQEVSFEDGQDTRAPRRRGGFTLGGGPSGGRGGGRGGRGRQFDRQSGSDRTGVRSFDKKDGHGKGNWGDQKDELAGETENIAPEGAESTEPEVPREKTAEELAYEAELAVLAKQKTLKEFKAAAKADAPKFNTRKAGEGAADTFGKLVPIKKEVIPDREEDEVVVIHKAPRKQVLDISITFRNDRPERERNDRSERPQRGGPRGGGRGGGRGGQRQGGHGGRNNTPFNASDDAFPALGAK”, the “soluble on expression in E. coli” value was “not soluble”. For “MSLQMYAGWRVVVDKNCIKIVSSNLAAQKLIEKQHNARLDTIAAKQQKVELYSVSMATMKELYKLSMQNISGFGTESLYYKEIGSCALDIIRNVPELIKTVSKAKFTNQLYCLTELGGLVMETQQLVGNFVNIVNNAKIPNPLKGEGTAERKSDGYNILDRYERMSLANSIYTNLNEIRYKVDGMMLMAQYATLNDLCFAINPEGWANVMTMRNQVDGLVSDWNGLVATNEGHHHHHH”, the “soluble on expression in E. coli” value was “soluble”. In the case of “SADIYIMGHRYPDMDALGSAFGVARLASFNNRKAWIVLDENEIIPDVKRVLEAIKEYPELEERIISPKEAMKRKKESSLLVMVDYHKPSLSISQELYERFDKVVIIDHHRRGDEFPAKPLLSYIESSASSASELVTELIEYQSNSANKLQAFEATMMLAGIVVDTKSFNTRTTARTFDVASYLRTCGADSSLVQYLLSSDL”, the “soluble on expression in E. coli” value is reported as “not soluble”. With “MAGDPMSATETITTNARVLGADPLVKDGFGEEDMLTLVLPYIKTAREGVLRLGELLETYGTYESNGIAFADTEEIWWLKTIGGHNWIARRVPDDAYVTNPNQLGIDHYEFENPDDYLASPDIRDFINKHHLDLTYSNEHFNPRYAFGSQRDKDHHYNTPRARAMLEHHHHHH” the “soluble on expression in E. coli” value was “not soluble”. In the case of “KGEITYLNQAWASITGFSISECMGTMYNDYFIKEKHVADHINTQIQNKASSGMFTAKYVTKNGTIFWGEVHYKLYYDRDDQFTGSLGTMSD”, the “soluble on expression in E. coli” value is reported as “not soluble”. In the case of “MLDWEQIFATRSSRMKASEIRELLKLLEQPDIISFAGGIPDPALFPAEEFQQAYAEIFSGAQVNAALQYSVSEGYKPLREWLAGEMDKIGIDCTADNVFIVSGSQQGLDYLGKLFLSPKDTALVTWPTYLGALSAFNAYEPNYDQLNPGGNRTPEAYRETAAKLGGAVKFAYLSADFSNPTGETVDLAGREKVLALADELDIAVIEDAAYQSLRYDGEAVPPIMALDIARSGGIENTRTIYCGSFSKTLAPGLRVGYIVASAPVIRKLVLMKQAADLHSSTINQIAIERVAARGFDKQVAKIKAAYSARRDAMLSALEKYMPKTTSWTKPEGGMFIWVTLPEGMDGAALLAKSIATEKVAFVPGRAFFADGSGTNTLRISFSCANEAMIEEGMKRLGRLITTAQAETTEVLAAI”, the “soluble on expression in E. coli” value is reported as “not soluble”. In the case of “MKSACSIITASIVLYKSKPDIIRDVITSFFSDTVTKKKLILIDNSPTDSLRVLQEERPEDIQYFFNNRNIGFGSAHNIGIREAARFNPSYHLILNPDVQFGPEVVPTLASYMDENPDIGLLMPQVYYPNGELQHLCKLFPRPWDVMLRRFVPYRSYRERNNERFELRNWSYDTIQDIPSLSGCFMFARMDILREVGGFDERFFMYAEDLDLCRRIGQVSRTVFFPKVSIMHTYAKGSYHLEHHHHHH”, the “soluble on expression in E. coli” value is reported as “soluble”. For “MTTAIGKKTTKLEPFKMERGVKYRDAAKTSVIQVRNIDPDQELLKKPEWMKIKLPTNSAKIDSIKYGMRRHGLHSVCEEASCPNLHECFNHGTATFMIMGAICTRRCPFCDVAHGKPLPLDPYEPRKVAETVQDMKLKYVVITSVDRDDLADRGAAHFAATVREIKALNPECKVEILVPDFRGRVEQAVAILKQNPPDVFNHNLENVPRLYREIRPGADYKWSLELLKIFKQEFPNIPTKSGLMVGLGETNEEILAVMQDLRDHGVTMLTVGQYLQPSRHHLRVERYVPPAEFEMFRSEAEKMGFEHAACGPFVRSSYHADLQAKGELVK”, the “soluble on expression in E. coli” value was “not soluble”. In the case of “MGHHHHHHSHMYKRCKRGQDKCMMRPLSNPLTEAYNVQNLYQCLNCDDYHLCNGSLNCDPLVDREGIVCTVTGKYIQCNVRESPMCGAACLDVDIHPEDNTDCILRALFGDIVDIINKLDDIAEIKDKILAGDSLNEHIKKKIECTFPMCANIINCNSQGYSILCSMFVHIIMSIYANKTIYGHMLFKCTRNKKYDTIAKKIREKWMYLE”, the “soluble on expression in E. coli” value is reported as “not soluble”. For “MSSKGSVVLAYSGGLDTSCILVWLKEQGYDVIAYLANIGQKEDFEEARKKALKLGAKKVFIEDVSREFVEEFIWPAIQSSALYEDRYLLGTSLARPCIARKQVEIAQREGAKYVSHGATGKGNDQVRFELSCYSLAPQIKVIAPWRMPEFYNRFKGRNDLMEYAKQHGIPIPVTPKNPWSMDENLMHISYEAGILENPKNQAPPGLYTKTQDPAKAPNTPDILEIEFKKGVPVKVTNVKDGTTHQTSLELFMYLNEVAGKHGVGRIDIVENRFIGMKSRGIYETPAGTILYHAHLDIEAFTMDREVRKIKQGLGLKFAELVYTGFWHSPECEFVRHCIAKSQERVEGKVQVSVLKGQVYILGRESPLSLYNEELVSMNVQGDYEPTDATGFININSLRLKEYHRLQSKVTAK”, the “soluble on expression in E. coli” value was “not soluble”. With “MSLAERLEIMVPSGSYVSFMRNTVTPEFNKLYPEVNLVVSNDEQLDTRMAAGDNPNVYIGVFGYQPAKLAKLGKLAYLDKFPGFAELNERIDPHFLRENFGRTYYIPWNATTQMMIYNKELFAEAGLDPERPPATWDEFLLAAEKISALPPRSDGSKVYGTVFWNDVLSFGSWYWNLLTPMYYNVNQGQYQLLNRYGTDIVFDRPDANMAQFMRTMQQAQRFAPLTMEKSFFSRNIGMWLQFGFGWKATLSSAAERPMVVGQDVAIAPIPVQTKGDIHYSVLDGRAIMIFKDEARKEQLSWALLNLLMRDDINLQANIALGQLPTLKALQDAPYFQSAEAQPFVQQLQHAILSEPFANAMEVANIILANYSKVVLKGEISPEQAVATSAQAARQLLNEHEGHHHHHH” the “soluble on expression in E. coli” value was “soluble”. For “MGSDKIHHHHHHMSTPTRIITSKDIETGKHISPAQRLRIMNADEWEEFIEEWTDSLKKEYFKVERLGGAGDKGRDIVAQLENAEIWDNYQCKHYGHSLRPSDIWTEIGKLVYYTAIGDFTCPRKYFFIAPLGVGTSLSDLLKNPRKLVQGLRENWDKYCKDKITQNCLIKLSDMEPQLEKIDFSIFGYVTPLTIIEQHRKTPHFITRFGGGLPKREIPPEPPIKSTSEESEYLKKILQAYSDFNKQDISTIDDVTDIDLTEHYKDSRIQFYSAEALKRFSRDALPENEFKLLQQEFLNGIKDEIRNPVHANGYLRLLEVVKVARALQITSHALIDCLMVNDRGGICHQLANDNESIAWAKNG”, the “soluble on expression in E. coli” value was “not soluble”. With “NNNLTWNIYANMTWNKNKIIKLSTDEPIEYTYQIIEEGRPYRQFYMKEYAGVDRENGKPLWYLNEEGNETTSDYNAAAKRYVGDADPKVLGGFGTNLSWKGFDFNMNFTYRLGGKVFDSGASFTGFGMANRTPLKDVALNSWTEENKDAKYPQYIYGDPNKATQTSSRFLYSSNFLRISNMTLGYTVPVNLTKKIFIQKLRAYISIDNLYTFTSNDFVGYNPETYSNGVIAWQYPATRTFIGGIQLSF” the “soluble on expression in E. coli” value was “not soluble”. For “MEALAMAGVDYQEWGLSIEEWELQESVVPLHLLADDFKEEEQEEDHQDNDDDDRVLDGLAVKQSVTRDIRASVGKFIEQSMSHMIVHLKQLKFLTLLLENFLFTHVLDFLL”, the “soluble on expression in E. coli” value was “not soluble”. For “MSLATLQDLDLTGNTNLVLEHKTLDIFSHITTLKIDQKPLPTTDSTVTSTFWSHGLAEMAGQRNKLCVSALAMDSFAEGVGAVYGMFDGDRNEELPRLLQCTMADVLLEEVQQSTNDTVFMANTFLVSHRKLGMAGQKLGSSALLCYIRPDTADPASSFSLTVANVGTCQAVLCRGGKPVPLSKVFSLEQDPEEAQRVKDQKAIITEDNKVNGVTCCTRMLGCTYLYPWILPKPHISSTPLTIQDELLILGNKALWEHLSYTEAVNAVRHVQDPLAAAKKLCTLAQSYGCQDNVGAMVVYLNIGEEGCTCEMNGLTLPGPVGFASTTTIKEGHHHHHH”, the “soluble on expression in E. coli” value was “soluble”.
